The values below come from the supplement of paper PMC10567573.

± gives the standard deviation.

This data set can be described thus: protein stability index of a GFP-peptide fusion (GPS, HEK-293T) (PSI 1-6); higher = more stable.
Setting [1] is: treatment: DMSO, c terminus: a fixed tail appended.
Where [2] appears, read: treatment: MLN4924 1 uM, 8 h, c terminus: a fixed tail appended.
[3] abbreviates: treatment: DMSO, c terminus: native.
Where [4] appears, read: treatment: MLN4924 1 uM, 8 h, c terminus: native.
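Note: 24-mer peptide tiles fused after GFP, lentivirally expressed, FACS-sorted into six equal bins by GFP/DsRed ratio, decoded by Illumina sequencing, PSI is the read-weighted mean bin number.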

In the case of QAPGQPPGNQAEHGAVTVGGTSVG [ZBTB22], the protein stability index is, setting by setting: under setting [1], 4.9 ± 0.43; under setting [2], 5.17 ± 0.21.
The like results for PRLQELLGPSPQRDPQAVKERALS [ZNF263] were, in that order, 4.6 ± 0.27 and 4.65 ± 0.3.
On to LGQNDTGFSCDGTANTFRVMFKEP [BTBD1], for which the protein stability index reads like this: under setting [1], 3.36 ± 0.2; under setting [2], 3.29 ± 0.31.
For LAVCLAPSLFHLNTLKRENSSPRV [DLC1] the same measures were 2.24 ± 0.24 and 2.11 ± 0.2.
The like results for ACDELFSYLIEKVKRKKNVLRLCC [PRAME] were, in that order, 2.99 ± 0.43 and 2.7 ± 0.61.
NDKFSFHEVKDNYIPVIKRALNSV [RHOBTB3]: the protein stability index came to 2.19 ± 0.49 under setting [1] and 2.41 ± 0.24 under setting [2].
For ITYESSQVDPGTDLEPGVLMSAQT [EPB41L3] the same measures were 4.29 ± 0.33 and 4.7 ± 0.085.
The like results for GFRGSDDMELHRMSRMQSKEYPVV [TBX5] were, in that order, 3.93 ± 0.31 and 3.98 ± 0.31.
On to YMGKGSMTGLALKHMFERSFTQGE [MATN2], for which the protein stability index runs as follows: under setting [1], 2.37 ± 0.23; under setting [2], 3.07 ± 0.18.
For LPRRRGLRKKKTTKLRLERVKFRR [NEUROD6] the same measures were 3.85 ± 0.27 and 3.97 ± 0.29.
As to PPKSVNPTCMCCQATSSTACHIQ [FAM219A], the protein stability index under setting [3] was 2.92 ± 0.29 and the protein stability index under setting [4] turned out to be 3.07 ± 0.16.
Take ERAAAQARRELQAEREALQARLRD [ZBED3]: the protein stability index reads like this: under setting [1], 5.27 ± 0.21; under setting [2], 5.33 ± 0.22.
For RPIGEFRSNADYQYQLLRCNVDLL [CNOT7] the same measures were 2.5 ± 0.2 and 2.47 ± 0.16.
For VVETVFFLTSRTRALLRRFPRMLL [ZSWIM9] the same measures were 2.89 ± 0.095 and 2.87 ± 0.3.
For KPASKPAGSSHTPSSQSSSGGGRD [ELOA2] the same measures were 5.47 ± 0.3 and 5.48 ± 0.19.
Regarding SKEDKDLDSSEGSSQEDEDLGLSE [SPANXN3], the protein stability index was determined as 5.57 ± 0.33 under setting [1] and 5.62 ± 0.28 under setting [2].
For KIYFTDSSSKWQRRDYLLLVMEGT [APMAP] the same measures were 2.68 ± 0.45 and 2.15 ± 0.37.
Turning to GSGADSEPARHIFSFSWLNSLNE [TRIM55], the protein stability index runs as follows: under setting [3], 3.53 ± 0.41; under setting [4], 3.53 ± 0.26.
Consider EREEEDDALDSEGRDSEGPAEGEG [KCNG1], for which the protein stability index is 5.55 ± 0.29 under setting [1] and 5.74 ± 0.12 under setting [2].
For RTDYSGRGELSARQMHLARFLRML [RAD51] the same measures were 2.18 ± 0.42 and 2.38 ± 0.26.
The like results for PKTMSQKEMEQLFSQYGRIITSRI [ELAVL3] were, in that order, 2.68 ± 0.18 and 2.76 ± 0.35.
For LLGLRTFVAFAAKLWSFFIYLLRR [CTDNEP1] the same measures were 4.28 ± 0.38 and 4.16 ± 0.3.
With LRKKKTTKLRLERVKFRRQEANAR [NEUROD6], the protein stability index amounted to 3.59 ± 0.34 under setting [1] and 3.59 ± 0.27 under setting [2].
The like results for PGDPKWLDVIERDLHRQFPFHEMF [TBC1D10A] were, in that order, 2.46 ± 0.31 and 2.57 ± 0.41.
For PKAKAKAKAKAKDQTKAQAAAPAS [RPL29] the same measures were 5.2 ± 0.22 and 5.21 ± 0.072.
On to YPSYKVREKIETVKYPTYPEAEK [FUT8], for which the protein stability index by setting is: under setting [3], 4.07 ± 0.19; under setting [4], 4.16 ± 0.57.
Take AFADTHSCRELLRIADKFTQHNFQ [KLHL20]: the protein stability index is 2.09 ± 0.21 under setting [1] and 2.02 ± 0.28 under setting [2].
The like results for MTSISLPSVMDPGAFETVLASAYT [ZBTB22] were, in that order, 2.57 ± 0.23 and 2.72 ± 0.26.
For SKQRKDFEGMAFLETEQGKPFVSV [GMCL1] the same measures were 3.42 ± 0.14 and 3.27 ± 0.16.
For KDIAPEKQLLNSAVIAQQRRKPDP [DLC1] the same measures were 5 ± 0.086 and 5.25 ± 0.17.
VTDYFFTLVQREEPLRILSKYHRF [CDS2]: the protein stability index runs as follows: under setting [1], 2.45 ± 0.21; under setting [2], 2.42 ± 0.28.
Take LEKEIEVLERGDSAPATAKENAAA [PALM]: the protein stability index is, setting by setting: under setting [1], 5.34 ± 0.2; under setting [2], 5.62 ± 0.2.
The like results for ETLLGDPEKRTQYFDPLRNEYFFD [KCNA4] were, in that order, 2.91 ± 0.48 and 3.81 ± 0.9.
For RHPPKVGDDSDLSEGFESDSSHDS [SMG5] the same measures were 5.46 ± 0.18 and 5.51 ± 0.21.
The like results for TSDAAFLTQWKDSLVSLVLYNMDL [ZER1] were, in that order, 2.71 ± 0.52 and 2.56 ± 0.44.
For GSIEYSCPASNECEITKRRRKACQ [ESRRA], the protein stability index came to 4.88 ± 0.23 under setting [1] and 4.97 ± 0.25 under setting [2].
The like results for LMNDVIDTSGFPDLSDNRNEDPLV [FBXO33] were, in that order, 4.85 ± 0.17 and 4.9 ± 0.18.
For NREVATNSELVQSGKSEISELRRT [KRT17] the same measures were 5 ± 0.22 and 5.09 ± 0.24.
For VFDAMFNGGMATTSAEIELPDVEP [BTBD1] the same measures were 4.68 ± 0.28 and 4.77 ± 0.24.
Turning to IFIIQACRGNQHDVPVIPLDVVDN [CASP6], the protein stability index by setting is: under setting [1], 2.71 ± 0.59; under setting [2], 2.49 ± 0.7.
For DLRTVDPETQARLEALLEAAGIGK [ANKRD17] the same measures were 3.84 ± 0.36 and 3.94 ± 0.16.
The like results for AKVNILLVENDQQLQKILSIPQSS [ACSBG2] were, in that order, 2.21 ± 0.17 and 2.07 ± 0.18.
For SYYNSPGLHVQHMGTSHGITRPSP [CCDC6] the same measures were 3.2 ± 0.29 and 3.24 ± 0.39.
For the sequence SLKEAEFYDKQLKVLLSGATFLVT [ZFYVE21], the protein stability index is, setting by setting: under setting [1], 2.27 ± 0.52; under setting [2], 2.55 ± 0.19.
For DVDLTIHGRHIDCPATWGPSVEQA [FOXJ1] the same measures were 3.95 ± 0.16 and 3.94 ± 0.3.
As for QGSQASQAPPVPGPPPGAPHTPQT [NR2F2], the protein stability index runs as follows: under setting [1], 5.13 ± 0.27; under setting [2], 5 ± 0.51.
For AQVFPESPESESDHEHEEADLELS [GNAS] the same measures were 5.44 ± 0.27 and 5.46 ± 0.23.
For DGTFSPVTLALFFVLYFLLACWTY [CLCN6] the same measures were 3.07 ± 0.34 and 2.9 ± 0.21.
YEDTNGQPQALLVDGDQSKILISG [TNXB]: the protein stability index reads like this: under setting [1], 4.99 ± 0.13; under setting [2], 4.73 ± 0.12.
For PTIDTGYDSQPQDVLGIRQLERPL [TRAF3IP2] the same measures were 4.2 ± 0.28 and 4.4 ± 0.37.
For RIIPNFYPPLEGHVRQGVFSSLNH [INTS3], the protein stability index by setting is: under setting [1], 2.28 ± 0.025; under setting [2], 2.3 ± 0.16.
The like results for DSYSSSRSDLYSSGRDRVGRQERG [RBMX] were, in that order, 4.72 ± 0.059 and 4.84 ± 0.22.
For INLATMNSCINPIALYFVSKKFKN [EDNRA], the protein stability index runs as follows: under setting [1], 2.83 ± 1.4; under setting [2], 2.01 ± 0.13.
The like results for LTRRLAHGEELRVSARSREGRGGR [HAGHL] were, in that order, 4.87 ± 0.22 and 4.99 ± 0.079.
For FHEVGTEMIITKAGRRMFPSYKVK [TBX5] the same measures were 2.35 ± 0.35 and 2.72 ± 0.33.
The like results for SKSLCHDEIENLLDSDHRELIGDY [CDC25B] were, in that order, 4.13 ± 0.26 and 4.31 ± 0.27.
EEDDDDDDDDNLPQLKKESELPFV [ANKRD40] came in with a protein stability index under setting [1] of 5.32 ± 0.1 and a protein stability index under setting [2] of 5.42 ± 0.18.
On to SAAPSNDQDGEYCPEVKLKTTGLE [SRPK2], for which the protein stability index amounted to 5.28 ± 0.28 under setting [1] and 5.26 ± 0.26 under setting [2].
Consider VLSEGSPLTEQEESSPSHDRSRTV [SRPK2], for which the protein stability index reads like this: under setting [1], 5.35 ± 0.33; under setting [2], 5.32 ± 0.25.
For NLISPVRNGAVRRFGQTIQSFTLR [NET1] the same measures were 2.65 ± 0.32 and 2.7 ± 0.14.
As to LASTSKPVVKLLHNRSNNKYSYTS [KCTD13], the protein stability index is, setting by setting: under setting [1], 3.08 ± 0.2; under setting [2], 3.27 ± 0.28.
The like results for GGLAESELRPRRGRCGPQAARAAG [POMT2] were, in that order, 3.71 ± 0.17 and 3.75 ± 0.38.
The like results for LSLLTNRGSKMFKLRQMRVEKFIY [MYOZ1] were, in that order, 2.13 ± 0.34 and 2.38 ± 0.14.
The like results for LRQRESKWLDMLNNWDKWMAKKHK [TBC1D10A] were, in that order, 2.9 ± 0.24 and 3.2 ± 0.41.
As for CQLALQQKRETLSPLCLIPMVTSP [KCTD13], the protein stability index runs as follows: under setting [1], 2.27 ± 0.16; under setting [2], 2.19 ± 0.17.
In the case of EDFSLPAYMDRRDHPLPEVAHVKH [COX4I1], the protein stability index under setting [1] was determined as 4.32 ± 0.28 and the protein stability index under setting [2] came to 4.59 ± 0.18.
In the case of WQSESLPVSLSASQSWHTESLPVS [BCL2L13], the protein stability index is 3.26 ± 0.23 under setting [1] and 3.35 ± 0.14 under setting [2].
With IITSRILVDQVTGVSRGVGFIRFD [ELAVL3], the protein stability index is, setting by setting: under setting [1], 2.42 ± 0.53; under setting [2], 2.53 ± 0.28.
The like results for IGGVATVVCQPNEFIMPDSAVVGD [SEPHS2] were, in that order, 3.72 ± 0.34 and 3.76 ± 0.44.
The like results for QVDVRFFGHHHQRAWIPSENIQDI [ZMYND11] were, in that order, 2.74 ± 0.22 and 2.94 ± 0.17.
The like results for KSTWPRYSKPGLSMRLLESKKGLS [TCF25] were, in that order, 2.92 ± 0.34 and 3.12 ± 0.17.
On to PEQALDTPGDCPPGRRDEDAGEGI [TMEM175], for which the protein stability index is, setting by setting: under setting [1], 5.53 ± 0.23; under setting [2], 5.43 ± 0.17.
